Read-outs that look alike come from different tables or passages of the source. No end group written: not given here. *: point of attachment. Oxazole(5-CO) = O=C(c1cnco1)*; Crotonyl(E) = C/C=C/C(=O)*; 2Furoyl = O=C(c1ccco1)*; Butyryl = CCCC(=O)*
T1: 6x His-tagged ENL YEATS domain (human, UniProt Q03111 1-138)
T1 sequence (looked up): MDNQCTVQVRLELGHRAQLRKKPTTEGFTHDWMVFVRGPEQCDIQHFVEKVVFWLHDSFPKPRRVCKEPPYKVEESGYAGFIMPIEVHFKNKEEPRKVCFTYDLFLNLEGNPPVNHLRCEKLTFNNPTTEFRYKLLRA

T2: AF9 YEATS domain (human, UniProt P42568 1-138)
T2 sequence (looked up): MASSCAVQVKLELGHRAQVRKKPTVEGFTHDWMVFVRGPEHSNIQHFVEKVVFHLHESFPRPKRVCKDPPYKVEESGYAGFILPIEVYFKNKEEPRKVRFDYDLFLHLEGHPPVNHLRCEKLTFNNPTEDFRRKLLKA

T3: NanoLuc luciferase (NLuc)-ENL YEATS fusion protein (human, UniProt Q03111 1-148)
T3 sequence (looked up): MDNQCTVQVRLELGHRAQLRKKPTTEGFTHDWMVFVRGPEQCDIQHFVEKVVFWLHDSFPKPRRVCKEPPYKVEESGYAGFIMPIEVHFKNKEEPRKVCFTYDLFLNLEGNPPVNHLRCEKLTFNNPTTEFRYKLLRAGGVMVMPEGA


How the values were obtained:
[1] = biological target: T1, 6x His-tagged ENL YEATS domain; test: AlphaScreen or HTRF
[2] = biological target: T1, 6x His-tagged ENL YEATS domain; test: BLI
[3] = biological target: T2, AF9 YEATS domain; test: BLI
[4] = biological target: T2, AF9 YEATS domain; test: AlphaScreen or HTRF
[5] = biological target: T3, NanoLuc luciferase (NLuc)-ENL YEATS …; test: FRET or BRET
[6] = biological target: T3, NanoLuc luciferase (NLuc)-ENL YEATS …; test: FRET or BRET; remark: listed apart in the source
[7] = biological target: T3, NanoLuc luciferase (NLuc)-ENL YEATS …; test: FRET or BRET; remark: listed apart in the source

Binder	IC50 [1] [nM]	Kd [2] [nM]	koff [2] [s⁻¹]	kon [2] [M⁻¹ s⁻¹]	Kd [3] [nM]	fold lower potency (IC50) toward AF9 YEATS than toward ENL YEATS [4] [fold]	IC50 [5] [nM]	fold selectivity for ENL YEATS over AF9 [3] [fold]	IC50 [6] [nM]	IC50 [7] [nM]
WWIIEK(Butyryl)G-NH2 [ENL-S2]	1220	881	0.00554	6290						
YDVYCYK(Butyryl)-NH2 [ENL-S1]	63	36.3	0.00226	62300	205	4				
YDVYCYK(Oxazole(5-CO))-NH2 [ENL-S1o]	10	2			55.1	23				
Ac-VYCYK(2Furoyl)-NH2 [tENL-S1f]							6400 ± 1600	12	4100 ± 1100	4200 ± 1100
YDVYCYK(2Furoyl)-NH2 [ENL-S1f]	22	10.3			144	7.7				
YDVYCYK(Crotonyl(E))-NH2 [ENL-S1c]	20	16.2			147	18				

— paper doi:10.1101/2023.01.08.523168 (bioRxiv, 2023)
